B1: MaSGR1 probe (dsDNA)
DNA 1: ATCATATTTCTGAATTAAGGTACTGGCGGCACATCGATATGGTATC
DNA 2: GATACCATATCGATGTGCCGCCAGTACCTTAATTCAGAAATATGAT
B2: MaAMY3 probe (dsDNA)
DNA 1: CGGACTCACGCCACACCACAGCCGCCCCTGACGCAATTAGCGTCGA
DNA 2: TCGACGCTAATTGCGTCAGGGGCGGCTGTGGTGTGGCGTGAGTCCG
B3: MaGWD1 probe (dsDNA)
DNA 1: CTAATCACATGATGGTGTGTGGCCGCCATCATTCTCTCCCAAGCAACC
DNA 2: GGTTGCTTGGGAGAGAATGATGGCGGCCACACACCATCATGTGATTAG
B4: MaEXP-A8 probe (dsDNA)
DNA 1: GTTGGTTCATAAGGTGCTCCGGCGGCATGTGCTGCAGACACGAAGT
DNA 2: ACTTCGTGTCTGCAGCACATGCCGCCGGAGCACCTTATGAACCAAC
B5: MaPL8 probe (dsDNA)
DNA 1: ATATCTGTGTGCTCTTGCGAGGCGGCTGGACTTTCCTGCACGCAAT
DNA 2: ATTGCGTGCAGGAAAGTCCAGCCGCCTCGCAAGAGCACACAGATAT
B6: MaXYL23-like probe (dsDNA)
DNA 1: GGCAATCAGTCGGAGGAGGAGCCGCCCGATTTGGTGCACTATCATC
DNA 2: GATGATAGTGCACCAAATCGGGCGGCTCCTCCTCCGACTGATTGCC

Molecular target: GST-MaERF012 (Musa acuminata 'Fenjiao' banana, UniProt A0A804KA32 1-188)
Assay: EMSA; LightShift Chemiluminescent EMSA Kit; buffer, salt, pH and temperature not stated
Details: protein: recombinant; tags: N-terminal GST (pGEX-4T-1); label: biotin 3' end; blunt

Chain of GST-MaERF012 (A0A804KA32 entry or part of it): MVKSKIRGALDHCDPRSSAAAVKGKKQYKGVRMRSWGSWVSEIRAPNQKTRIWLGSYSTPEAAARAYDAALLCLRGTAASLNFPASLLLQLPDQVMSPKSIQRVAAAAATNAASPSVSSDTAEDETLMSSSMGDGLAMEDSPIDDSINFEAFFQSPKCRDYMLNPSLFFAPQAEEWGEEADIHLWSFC

Binder | binding result
B1 | binds
B2 | binds
B3 | binds
B4 | binds
B5 | binds
B6 | binds

From PMC9738063, “Ethylene Response Factor MaERF012 Modulates Fruit Ripening by Regulating Chlorophyll Degradation and Softening in Banana”
